Source: patent EP0239400B1

What was measured:
[1] = target: hen eggwhite lysozyme (hen) (UniProt P00698); test: fluorescence quench titration with hen eggwhite lysozyme, in solution; reassociated chains
[2] = target: hen eggwhite lysozyme (hen) (UniProt P00698); test: fluorescence quench titration with hen eggwhite lysozyme, in solution

Sequence of UniProt P00698 (P00698 19-147 limits assumed): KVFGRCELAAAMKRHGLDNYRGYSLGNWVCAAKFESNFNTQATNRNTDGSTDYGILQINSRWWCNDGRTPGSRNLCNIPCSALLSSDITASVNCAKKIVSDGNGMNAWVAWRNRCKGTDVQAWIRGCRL

Row | Kd [1] | Kd [2] | Substance
1 | 0.0114 µM | 0.0144 µM | antilysozyme antibody D1.3 (H₂K₂)
2 | 0.0092 µM | – | recombinant D1.3 (H*₂K₂) (reassociated) (antibody)
